Laboratory results taken from publication PMC1762433.

Biological target: FBXW8 (UniProt Q8N3Y1)
Assay: HA IP, V5 immunoblot
Settings: reference: HA-cyclin D1 wild type; sites T286

cyclin D1 (from UniProt P24385) HA-cyclin D1 T286A
binding against the reference: weaker
